# Type: physicochemical
# Settings: pH 7.4
substance,measurement,value
In-house rituximab,SEC-HPLC % mAb Monomer,99.2%

# Source: PMC9746415 (Human Vaccines & Immunotherapeutics, 2022)
